According to article PMC11107207, “Utility of protein–protein binding surfaces composed of anti-parallel alpha-helices and beta-sheets selected by phage display” (The Journal of Biological Chemistry, 2024):

Target: T1, APCDD1 bait fused to the C terminus of Fc (mouse, UniProt Q3U128 27-492)
T1 construct: mouse APCDD1, entire extracellular domain, fused to the C terminus of Fc; secreted with the mouse FZD8 signal peptide; also called Fc-bait; source: HEK293T, transiently transfected, serum-free conditioned medium; captured on proteinG; not shown: Fc (human IgG1), N-terminal, kept
T1 sequence (Q3U128 27-492): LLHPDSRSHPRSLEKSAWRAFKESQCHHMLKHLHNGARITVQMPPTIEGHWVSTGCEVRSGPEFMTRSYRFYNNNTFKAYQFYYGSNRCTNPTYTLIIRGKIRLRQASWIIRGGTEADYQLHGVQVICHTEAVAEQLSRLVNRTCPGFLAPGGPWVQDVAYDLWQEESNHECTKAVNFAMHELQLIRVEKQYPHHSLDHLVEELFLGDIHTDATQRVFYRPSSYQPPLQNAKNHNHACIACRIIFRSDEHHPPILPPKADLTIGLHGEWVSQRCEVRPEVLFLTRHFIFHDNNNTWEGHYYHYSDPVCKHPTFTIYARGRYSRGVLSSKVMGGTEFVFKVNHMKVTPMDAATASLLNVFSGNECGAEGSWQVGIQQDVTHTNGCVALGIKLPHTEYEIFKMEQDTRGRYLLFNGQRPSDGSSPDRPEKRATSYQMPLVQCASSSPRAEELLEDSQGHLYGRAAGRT
Test: SPR; Biacore, single-cycle kinetics/affinity, five-point dose response; bait-Fc on a proteinG chip; CC4-MBP in the mobile phase; done at Cayman Chemical
Details: both partners purified

Kd: > 50 µM
B1: WT CC4-MBP (domain or fragment, mouse)
chain: PMRNPTDSLYCCDRAEDHACQNACKRILMSKKTEMEIVDGLIEGCKTQPLPQDPLWQCFLESSQS
notes: mouse RECK, CC domain 4 (CC4), a 4-helix bundle of 65 amino acids; also called RECK(CC4); source: E. coli SHuffle, purified (Ni-NTA)
